Target: acetylcholine receptor
Experiment: SPR, AchR immobilised on CM5 chip, peptide 10 uM

Binding affinity (RU) | Binder
38 | RKDPHR [6mer-1-1046]
37 | KRANMK [6mer-1-1017]
40 | KRADIK [6mer-1-1039]
25 | KNSHKK [6mer-2-601]
16 | KEPIRK [6mer-2-604]
23 | RKEHGK [6mer-1-1041]
38 | RKDTHK [6mer-1-1031]
41 | KKHDIK [6mer-1-1021]
28 | KRIEFR [6mer-1-1040]
25 | KKIDHK [6mer-1-1063]
28 | KKTAFK [6mer-1-1018]
31 | KKWVKR [6mer-2-607]
29 | KKTTNK [6mer-1-1013]
21 | KRFPWR [6mer-1-1058]
21 | KKITFR [6mer-1-1036]
39 | RRETVK [6mer-1-1059]
35 | RRAWVR [6mer-1-1012]
27 | RRICMR [6mer-1-1062]
38 | KKMEDR [6mer-1-1050]
21 | KRHTHR [6mer-1-1016]
30 | KRAAHR [6mer-1-1043]
31 | KKDHKK [6mer-1-1049]
17 | KNCGKK [6mer-2-605]
27 | KKTSMR [6mer-1-1032]
21 | RRKKIR [6mer-1-1038]
33 | KKPKHK [6mer-1-1010]

Binding affinity (RU) | Binder
37 | KRDAWR [6mer-1-1019]
36 | RRHCWR [6mer-1-1028]
35 | RKKPEK [6mer-1-1011]
34 | RRCHHR [6mer-1-1035]
40 | KRCNDK [6mer-1-1055]
36 | RKTEIR [6mer-1-1024]
24 | RDSDRR [6mer-2-609]
40 | KKITAR [6mer-1-1042]
21 | KRYNVR [6mer-1-1060]
25 | KKNAWR [6mer-1-1014]
19 | KAWIRR [6mer-2-614]
43 | KRKPVR [6mer-1-1057]
22 | RKDTVR [6mer-1-1022]
32 | RKNPKR [6mer-2-610]
41 | RKPTAK [6mer-1-1064]
41 | RRISIR [6mer-1-1061]
30 | RKKCER [6mer-1-1026]
24 | KKHHIR [6mer-1-1044]
36 | RRKNNR [6mer-1-1037]
30 | KKFCFR [6mer-1-1030]
37 | RRMKVK [6mer-1-1054]
25 | KKDKIK [6mer-1-1006]
39 | KRIMHK [6mer-1-1023]
32 | RCNHKK [6mer-2-608]
26 | KREEWR [6mer-1-1015]
33 | KRHWIR [6mer-1-1052]

Binding affinity (RU) | Binder
40 | RRCMAK [6mer-1-1029]
32 | KFHARR [6mer-2-603]
24 | RNTPKR [6mer-2-602]
27 | KDNGRK [6mer-2-615]
15 | RKPFRR [6mer-2-606]
43 | KKKSFK [6mer-1-1051]
21 | RKPWAR [6mer-1-1008]
30 | RKATDK [6mer-1-1047]
12 | KHHKKR [6mer-2-618]
22 | RIKMRR [6mer-2-611]
26 | RPPDRR [6mer-2-619]
29 | RKMSKK [6mer-1-1009]
17 | RDCVRK [6mer-2-612]
32 | RCNGRR [6mer-2-617]
38 | KKMEAK [6mer-1-1020]
39 | RKPTDR [6mer-1-1007]
27 | RRNTAK [6mer-1-1056]
18 | KAANRR [6mer-2-613]
27 | RKYTPK [6mer-1-1053]
22 | KKPWHK [6mer-1-1027]
30 | KRHMVK [6mer-1-1033]
36 | RRCMMK [6mer-1-1048]
33 | KRFAKR [6mer-1-1025]
27 | KKTPGR [6mer-1-1045]
26 | REPHRK [6mer-2-616]
24 | KKASDR [6mer-1-1034]
